The record followed here is publication PMC3575576.

This test concerns the target E47 (mouse (endogenous in palatal shelves)) (UniProt P15806).
Chain of UniProt P15806 (P15806 whole entry): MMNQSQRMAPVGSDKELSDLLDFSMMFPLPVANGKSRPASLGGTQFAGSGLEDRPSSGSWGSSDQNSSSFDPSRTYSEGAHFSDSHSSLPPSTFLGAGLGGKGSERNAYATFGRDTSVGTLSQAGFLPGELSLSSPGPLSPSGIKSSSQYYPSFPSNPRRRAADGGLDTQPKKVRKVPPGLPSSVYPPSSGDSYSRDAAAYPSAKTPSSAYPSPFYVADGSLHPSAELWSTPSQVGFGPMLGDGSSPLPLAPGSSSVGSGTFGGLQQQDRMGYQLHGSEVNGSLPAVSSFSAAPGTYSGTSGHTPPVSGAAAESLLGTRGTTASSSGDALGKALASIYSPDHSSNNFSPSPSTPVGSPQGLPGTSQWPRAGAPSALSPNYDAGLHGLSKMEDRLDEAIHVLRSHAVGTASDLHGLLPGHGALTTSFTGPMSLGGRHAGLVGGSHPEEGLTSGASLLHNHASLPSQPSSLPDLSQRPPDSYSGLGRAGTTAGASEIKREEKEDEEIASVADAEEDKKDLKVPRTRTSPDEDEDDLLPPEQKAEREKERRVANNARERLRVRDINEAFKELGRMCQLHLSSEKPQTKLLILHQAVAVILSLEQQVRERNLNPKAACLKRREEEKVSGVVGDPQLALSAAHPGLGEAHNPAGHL

B1: Twist1 (natural protein)
chain: MMQDVSSSPVSPADDSLSNSEEEPDRQQPASGKRGARKRRSSRRSAGGSAGPGGATGGGIGGGDEPGSPAQGKRGKKSAGGGGGGGAGGGGGGGGGSSSGGGSPQSYEELQTQRVMANVRERQRTQSLNEAFAALRKIIPTLPSDKLSKIQTLKLAARYIDFLYQVLQSDELDSKMASCSYVAHERLSYAFSVWRMEGAWSMSASH
With B1, the luciferase activity of the Snail1 promoter (1.7KSnLuc) in MDCK cells transfected with forced Twist1/E47 (T/E) heterodimers, compared with cells transfected with Twist1 alone worked out at 2 fold.
